Like-named read-outs stand apart in the source and are kept apart here.
Experiments:
[1] = target: GITR expressed on CHO cells (Homo sapiens (Human)) (UniProt Q9Y5U5); assay: flow cytometry on GITR-expressing CHO cells, MFI-FL4
[2] = target: GITR expressed on CHO cells (Homo sapiens (Human)) (UniProt Q9Y5U5); assay: as above; remark: listed apart in the source

Chain of GITR expressed on CHO cells (Homo sapiens (Human)) (Q9Y5U5 26-241 limits assumed): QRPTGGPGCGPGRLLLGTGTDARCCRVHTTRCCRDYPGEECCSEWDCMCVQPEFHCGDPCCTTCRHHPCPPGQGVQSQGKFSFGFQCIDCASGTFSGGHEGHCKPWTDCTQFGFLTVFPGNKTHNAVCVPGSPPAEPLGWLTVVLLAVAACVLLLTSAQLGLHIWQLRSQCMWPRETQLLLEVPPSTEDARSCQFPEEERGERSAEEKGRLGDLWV

EC50 (read off the curve) [1]: 1 nM | EC50 (read off the curve) [2]: 3 nM
Substance: TRX-518 (antibody)

— US20190100594A1
